Experimental findings from US20070196883A1, “ENZYME” (UNIVERSITY OF DUNDEE, priority 1999, published 2007) are described below.

The target in assay [1] is T1, endogenous PDK1 associated with GST-PIF (Homo sapiens, UniProt O15530).
T1 construct: endogenous in cells; host or cells: 293 cells transfected with pEBG2T GST-PIF; endogenous PDK1 co-purified on glutathione-Sepharose
The experiment in a line: Dissociation of endogenous PDK1 from purified GST-PIF by peptide. In kind it is binding. Conditions: peptide 100 μM, GST-PIF purified from 293 cells. From the text: In contrast, a mutant peptide in which the residue corresponding to Asp978 was changed to Ala (termed “D978A-Region B peptide”) interacted with PDK1>fold 10-less strongly (FIG. 13).

In another assay the target is T2, His-PDK1 (Homo sapiens, UniProt O15530).
T2 construct: made in house; host or cells: Sf21 insect cells (baculovirus, pFASTBAC HTb)
T2 sequence (O15530 1-556): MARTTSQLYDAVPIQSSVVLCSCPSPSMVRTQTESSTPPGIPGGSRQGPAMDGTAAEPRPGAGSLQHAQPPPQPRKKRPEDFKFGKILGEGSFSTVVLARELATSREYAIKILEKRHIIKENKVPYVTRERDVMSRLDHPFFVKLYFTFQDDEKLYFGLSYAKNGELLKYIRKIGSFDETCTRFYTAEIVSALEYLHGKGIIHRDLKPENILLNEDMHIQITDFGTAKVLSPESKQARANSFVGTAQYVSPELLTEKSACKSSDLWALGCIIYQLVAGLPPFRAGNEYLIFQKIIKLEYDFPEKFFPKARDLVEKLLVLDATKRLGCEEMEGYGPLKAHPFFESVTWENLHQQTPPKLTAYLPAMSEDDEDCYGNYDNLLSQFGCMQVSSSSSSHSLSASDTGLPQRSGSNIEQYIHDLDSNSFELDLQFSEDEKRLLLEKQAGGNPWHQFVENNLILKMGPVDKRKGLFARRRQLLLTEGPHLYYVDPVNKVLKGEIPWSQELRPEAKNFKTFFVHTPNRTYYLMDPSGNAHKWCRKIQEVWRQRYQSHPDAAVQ
Nature of the assay: Conversion of His-PDK1 into a Ser473 PKBα kinase by synthetic peptide (P-Ser473 immunoblot). The class given is biochemical. To be noted: peptide at 20 µM, 3-phosphoinositide vesicles, MgATP. How it is done:
FIG. 6. Conversion of PDK1 into an enzyme that can phosphorylate both Thr308 and Ser473 of PKB by addition of a synthetic peptide. […] After allowing to stand for 1 h at 4° C. GST-PKBα, MgATP and the indicated phospholipid vesicles containing 100 μM PtdCho, 100 μM PtdSer, and either 10 μM sn-1-stearoyl-2-arachidonoyl-D-PtdIns(3,4,5)P3 (1,2-SAD-PtdIns(3,4,5)P3), or sn-1,2 di-palmitoyl-D-PtdIns(3,4,5)P3 (C16-PtdIns(3,4,5)P3) or sn-1,2 di-palmitoyl-D-PtdIns(3,4)P2 (C16-PtdIns(3,4)P2) were added. After 1 h at 30° C., the reactions were terminated by making the solutions 1% in SDS, the samples were subjected to SDS/polyacylamide gel electrophoresis and immunoblotted using P-Ser473 antibody. Identical results were obtained in 2 separate experiments. […]
Phosphorylation of GST-PKBα by incubation with GST-PIF. In experiments in which the phosphorylation of PKBα was determined using the phospho-specific Ser473 PKBα antibodies, the incubations were identical to the Stage 1 described above except that the reactions were terminated by the addition of 1% (by mass) SDS and immunoblotting is carried out as described below. In experiments in which the sites of phosphorylation on PKBα are determined the incubations were identical to the Stage 1 described above except [γ^32P] […]
A general note: In western blotting, separated proteins are transferred to a membrane and probed.

T1 sequence (Q16513 908-984 partner limits assumed, one chain of several): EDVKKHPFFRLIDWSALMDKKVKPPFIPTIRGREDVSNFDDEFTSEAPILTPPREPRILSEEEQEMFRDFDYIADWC

For “D978A-Region B peptide: mutant peptide in which the residue corresponding to Asp978 was changed to Ala (REPRILSEEEQEMFRDFAYIADWC)”, the “dissociation of the endogenous PDK1 from GST-PIF” value in assay [1] is recorded as “incapable of inducing the dissociation”. The “inducing His-PDK1 to phosphorylate PKBα at Ser473” value in the assay with His-PDK1 is “far less effective”.
